Assay results from patent US20220081485A1 (BEIJING WISDOMAB BIOTECHNOLOGY, published 2022).
Where two headings read alike, the source gives them in different places.

T1: mmIL4R-mFc (Macaca mulatta IL-4R extracellular domain fused to murine IgG2a Fc) (Macaca mulatta)
T1 chain: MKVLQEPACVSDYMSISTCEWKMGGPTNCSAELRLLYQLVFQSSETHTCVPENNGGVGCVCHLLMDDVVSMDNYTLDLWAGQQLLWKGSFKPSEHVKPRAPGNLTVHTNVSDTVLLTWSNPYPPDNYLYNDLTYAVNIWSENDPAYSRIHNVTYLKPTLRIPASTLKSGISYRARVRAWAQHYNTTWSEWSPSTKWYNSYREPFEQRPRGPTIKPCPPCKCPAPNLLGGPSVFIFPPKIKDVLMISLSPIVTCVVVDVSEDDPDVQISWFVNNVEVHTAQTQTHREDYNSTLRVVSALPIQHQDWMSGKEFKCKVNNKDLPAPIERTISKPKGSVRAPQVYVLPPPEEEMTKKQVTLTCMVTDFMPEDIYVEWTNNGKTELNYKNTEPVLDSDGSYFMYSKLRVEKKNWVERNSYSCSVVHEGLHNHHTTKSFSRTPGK

T2: human IL-4R on cells (HEK-Blue IL-4/IL-13 cells, TF-1 cells, human PBMCs) (human, UniProt P24394 26-825)
T2 sequence (looked up): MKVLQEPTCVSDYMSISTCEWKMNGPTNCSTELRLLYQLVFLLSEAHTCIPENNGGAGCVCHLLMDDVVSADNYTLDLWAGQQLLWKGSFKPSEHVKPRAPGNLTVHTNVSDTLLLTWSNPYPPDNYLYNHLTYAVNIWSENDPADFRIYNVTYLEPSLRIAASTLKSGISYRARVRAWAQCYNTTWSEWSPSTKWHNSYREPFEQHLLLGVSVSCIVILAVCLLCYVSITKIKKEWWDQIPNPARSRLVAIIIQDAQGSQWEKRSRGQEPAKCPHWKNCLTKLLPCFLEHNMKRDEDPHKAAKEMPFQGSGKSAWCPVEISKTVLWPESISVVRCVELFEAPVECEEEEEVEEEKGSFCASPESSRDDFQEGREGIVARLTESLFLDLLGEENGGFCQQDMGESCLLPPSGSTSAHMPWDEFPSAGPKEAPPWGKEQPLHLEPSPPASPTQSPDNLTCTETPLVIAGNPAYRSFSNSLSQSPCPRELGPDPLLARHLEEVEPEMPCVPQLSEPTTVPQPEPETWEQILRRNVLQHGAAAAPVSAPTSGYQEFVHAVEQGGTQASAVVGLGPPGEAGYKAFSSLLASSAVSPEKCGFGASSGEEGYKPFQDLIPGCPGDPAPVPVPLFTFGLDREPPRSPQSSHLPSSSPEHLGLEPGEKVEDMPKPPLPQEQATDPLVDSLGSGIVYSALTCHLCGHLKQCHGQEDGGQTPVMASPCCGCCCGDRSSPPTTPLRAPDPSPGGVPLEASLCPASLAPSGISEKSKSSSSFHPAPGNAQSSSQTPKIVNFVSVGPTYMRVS

T3: recombinant hIL4R-his (human IL-4R extracellular domain with C-terminal His tag) (human (Homo sapiens), UniProt P24394 26-232)
T3 construct: The tag was added at the C-terminus; The protein was expressed in HEK293 cells; also called huIL4R
T3 sequence: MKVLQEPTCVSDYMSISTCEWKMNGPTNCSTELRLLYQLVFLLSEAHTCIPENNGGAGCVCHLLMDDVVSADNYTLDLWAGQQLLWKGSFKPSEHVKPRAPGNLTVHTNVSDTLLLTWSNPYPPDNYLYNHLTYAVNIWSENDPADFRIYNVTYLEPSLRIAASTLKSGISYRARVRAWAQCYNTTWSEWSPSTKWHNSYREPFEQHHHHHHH


Columns and labels:
[1] = target: T1, mmIL4R-mFc (Macaca mulatta IL-4R …); experiment: SPR Biacore X100, antibody captured, mmIL4R-mFc as analyte
Protocol: (§1) The affinity of each anti-IL4R IgG4 chimeric antibody was determined using Biacore X100. Amino coupling kits, human antibody capture kits, CM5 chips, 1× HBS-EP (pH 7.4) and all reagents used in this assay were purchased from GE Healthcare. According to the instructions in the kits, an antibody against the human Fc region was coupled to the surface of the CM5 chip using an amino coupling method, and antibody proteins were diluted to appropriate concentrations to ensure that about 100 RU of the antibodies was captured by the antibody against the human Fc. IL4R-his was set to a series of concentration gradients (100 nm, 33.3 nm, 11.1 nm, 3.7 nm, 1.23 nm) and flew through the surface of the stationary phase.
Similarly, anti-IL4R monoclonal antibodies were captured and mmIL4R-mFc was set to a series of concentration gradient (50 nm, 16.7 nm, 5.56 nm, […], 0.62 nm).

[2] = target: T4, IL4R-mFc (human IL-4R extracellular domain fused to murine IgG2a Fc) (human (Homo sapiens)); experiment: blocking ELISA: antibody gradient with IL4-his at a fixed concentration on coated IL4R-mFc; bound IL4-his detected with HRP-mouse-anti-his IgG
T4 construct: also called antigen IL4R-mFc
Protocol: (§2) 96 well plates were coated with antigen IL4R-mFc (3 μg/ml, 100 μI/well) overnight at 4° C.

[3] = target: T2, human IL-4R on cells (HEK-Blue …); experiment: cell-based or functional assay
[4] = target: T3, recombinant hIL4R-his (human IL-4R …); experiment: SPR Biacore X100, antibody captured by anti-human Fc, IL4R-his as analyte, 25 C
Protocol: as §1

[5] = target: T2, human IL-4R on cells (HEK-Blue …); experiment: cell-based or functional assay; remark: listed apart in the source
[6] = target: T2, human IL-4R on cells (HEK-Blue …); experiment: cell-based or functional assay; remark: listed apart in the source
[7] = target: T2, human IL-4R on cells (HEK-Blue …); experiment: cell-based or functional assay; remark: listed apart in the source
[8] = target: T2, human IL-4R on cells (HEK-Blue …); experiment: cell-based or functional assay; remark: listed apart in the source
[9] = target: T2, human IL-4R on cells (HEK-Blue …); experiment: cell-based or functional assay; remark: listed apart in the source
[10] = target: T2, human IL-4R on cells (HEK-Blue …); experiment: cell-based or functional assay; remark: listed apart in the source
[11] = target: T4, IL4R-mFc (human IL-4R extracellular …); experiment: blocking ELISA: antibody gradient with IL4-his at a fixed concentration on coated IL4R-mFc; bound IL4-his detected with HRP-mouse-anti-his IgG; remark: listed apart in the source
Protocol: as §2

[12] = target: T3, recombinant hIL4R-his (human IL-4R …); experiment: SPR Biacore X100, antibody captured by anti-human Fc, IL4R-his as analyte, 25 C; remark: listed apart in the source
Protocol: as §1

Kd [1] [nM]	koff [1] [s⁻¹]	kon [1] [M⁻¹ s⁻¹]	IC50 (read off the curve) [2] [nM]	IC50 values in inhibition of IL-4 (IL-4 induced proliferation of TF-1 cells, CellTiter-Glo) [3] [nM]	Kd [4] [nM]	koff [4] [s⁻¹]	kon [4] [M⁻¹ s⁻¹]	IC50 values in inhibition of CD23 expression on human PBMCs (IL-4 stimulated, flow cytometry) [5] [nM]	IC50 values in inhibition of IL-4 (SEAP, HEK-Blue IL-4/IL-13 cells) [6] [nM]	IC50 values in inhibition of IL-13 (SEAP, HEK-Blue IL-4/IL-13 cells) [7] [nM]	IC50 values in inhibition of IL-13 (SEAP, HEK-Blue IL-4/IL-13 cells) [8] [nM]	IC50 values in inhibition of IL-4 (SEAP, HEK-Blue IL-4/IL-13 cells) [9] [nM]	fold of IC50 in inhibition of IL-4 against L10B2 (HEK-Blue IL-4/IL-13 cells) [10] [fold]	fold of IC50 in inhibition of IL-13 against L10B2 (HEK-Blue IL-4/IL-13 cells) [10] [fold]	IC50 (read off the curve) [11] [nM]	Kd [12] [nM]	koff [12] [s⁻¹]	kon [12] [M⁻¹ s⁻¹]	fold of IC50 in inhibition of IL-4 induced CD23 expression on PBMCs against L18D7 [10] [fold]	Binder
1.67	0.000984	590000	~10	0.116	0.48	0.000143	297000	0.0268	0.0484	0.0102	–	–	–	–	–	–	–	–	–	L18D7-IgG4 (antibody, V domains shown, also called S1E6 light chain mutant L18D7) VH: EVQLVESGGGLVQPGGSLRLSCAVSGFTFSSYAMSWVRQAPGKGLEWVSSITGGGGGIYYADSVKGRFTISRDNSKNTVYLQMNSLRAEDTAVYYCAKDRISITIRPRYFGLDFWGQGTTVTVSS VL: DIVMTQSPLSLPVTPGEPASISCRSSQSLLYSIGYNYLDWYLQKSGQSPQLLIYLGSNRASGVPDRFSGSGSGTDFTLKISRVEAEDVGFYYCMQSFKAPYTFGQGTKLEIKR
–	–	–	–	–	–	–	–	–	–	–	0.0314	0.333	1.6	2.4	~8	0.874	0.000309	353000	–	L10C2-IgG4 (antibody, V domains shown, also called S1E6 light chain mutant L10C2) VH: EVQLVESGGGLVQPGGSLRLSCAVSGFTFSSYAMSWVRQAPGKGLEWVSSITGGGGGIYYADSVKGRFTISRDNSKNTVYLQMNSLRAEDTAVYYCAKDRISITIRPRYFGLDFWGQGTTVTVSS VL: DIVMTQSPLSLPVTAGAPASISCRSSQSLLYSNGYNYLDWYMQKPGQSPQLLIYLGSNRASGVPDRFSGSGSGTDFTLKISRVEAEDVGVYYCMQALETPYAFGQGTKVEIKR
8.4	0.00594	706000	~4	0.129	0.586	0.000194	331000	0.0635	0.0494	0.0121	–	–	–	–	–	–	–	–	2.3	L28C9-IgG4 (antibody, V domains shown, also called S1E6 light chain mutant L28C9) VH: EVQLVESGGGLVQPGGSLRLSCAVSGFTFSSYAMSWVRQAPGKGLEWVSSITGGGGGIYYADSVKGRFTISRDNSKNTVYLQMNSLRAEDTAVYYCAKDRISITIRPRYFGLDFWGQGTTVTVSS VL: DIVMTQSPLSLPVTPGEPASISCRSSQNVVYGNGYNYLDWYLQKSGQSPQLLIYLGNNVAAGVPDRFSGSGSGTDFTLKISRVEAEDVGFYYCMQSLKAPYTFGQGTKLEIKR
